Measurements: patent publication US8613931B2, “Compounds for treating beta-amyloidoses” (Affiris AG, priority 2008, dated 2013)

What was measured:
[1] = tested on: monoclonal antibody MV-001; test: In vitro binding assay (ELISA), parental antibody MV-001; parameters: species or system C57/Bl6 mice; conditions: peptide-BSA on ELISA plate; OD halfmax, dilution factor 1:X of parental AB MV-001
Method: 1. In vitro binding assay (ELISA)
Peptides derived from Phage Display as well as variants thereof were coupled to BSA and bound to ELISA plates (1 μM; as indicated in the respective figures) and subsequently incubated with the monoclonal antibody that was used for the screening procedure to analyse binding capacity of identified peptides.

[2] = molecular target: monoclonal antibody MV-001; test: ELISA, peptide-BSA coated, MV-001; conditions: for Binding Capacity: scale: code

**Q.** How did the “Binding Capacity” value [1] turn out when QPNLFYHC [p4713] was run?
**A.** 1 (weak binding :<4000)

**Q.** EFLRHTLC [p4722] was tested. Which “Binding Capacity” value [1] did it give?
**A.** 3 (strong binding :>20000)

**Q.** Which “Binding Capacity” value [1] does the source give for QELKRYYC [p4724] here?
**A.** 1 (weak binding :<4000)

**Q.** How did the “Binding Capacity” value [1] turn out when ATPLFRHC [p4723] was run?
**A.** 3 (strong binding :>20000)

**Q.** Which “Binding Capacity” value [1] does the source give for QLFKHSPC [p4747] here?
**A.** 3 (strong binding :>20000)

**Q.** How did the “Binding Capacity” value [1] turn out when LHIPFRHC [p4726] was run?
**A.** 3 (strong binding :>20000)

**Q.** SQSYFKHC [p4755] was tested. Which “Binding Capacity” value [1] did it give?
**A.** 3 (strong binding :>20000)

**Q.** How did the “Binding Capacity” value [1] turn out when HEPLFSHC [p4719] was run?
**A.** 1 (weak binding :<4000)

**Q.** With SNFRHSVC [p4749] as the molecule, how does the “Binding Capacity” value [1] read?
**A.** 3 (strong binding :>20000)

**Q.** With SEFSHSSC [p4712] as the molecule, how does the “Binding Capacity” value [1] read?
**A.** 3 (strong binding :>20000)

**Q.** GEMRHQPC [p4702] was tested. Which “Binding Capacity” value [1] did it give?
**A.** 3 (strong binding :>20000)

**Q.** APIQFRHC [p4750] was tested. Which “Binding Capacity” value [1] did it give?
**A.** 3 (strong binding :>20000)

**Q.** Which “Binding Capacity” value [1] does the source give for TPLMFWHC [p4733] here?
**A.** 1 (weak binding :<4000)

**Q.** Which “Binding Capacity” value [1] does the source give for SNSEFRRC [p4743] here?
**A.** 3 (strong binding :>20000)

**Q.** With EDWFFWHC [p4709] as the molecule, how does the “Binding Capacity” value [1] read?
**A.** 1 (weak binding :<4000)

**Q.** NSSELRHC [p4752] was tested. Which “Binding Capacity” value [1] did it give?
**A.** 3 (strong binding :>20000)

**Q.** How did the “Binding Capacity” value [1] turn out when THMEFRRC [p4745] was run?
**A.** 3 (strong binding :>20000)

**Q.** For SELRHSTC [p4744], which “Binding Capacity” value [1] is on record?
**A.** 3 (strong binding :>20000)

**Q.** For SAGSFRHC [p4710], which “Binding Capacity” value [1] is on record?
**A.** 3 (strong binding :>20000)

**Q.** With NELRHSTC [p4701] as the molecule, how does the “Binding Capacity” value [1] read?
**A.** 3 (strong binding :>20000)

**Q.** How did the Binding Capacity (code (weak binding, OD halfmax 1:<4000)) [2] turn out when TSTEMWHC [p4754] was run?
**A.** 1

**Q.** How did the Binding Capacity [2] turn out when AEFSHWHC [p4737] was run?
**A.** 2

**Q.** How did the Binding Capacity (code (weak binding, OD halfmax 1:<4000)) [2] turn out when EDWFFWHC [p4709] was run?
**A.** 1

**Q.** Which Binding Capacity [2] does the source give for SSSFFPRC [p4708] here?
**A.** 2

**Q.** Which Binding Capacity [2] does the source give for QLFKHSPC [p4747] here?
**A.** 3

**Q.** IGFRHDSC [p4742] was tested. Which Binding Capacity [2] did it give?
**A.** 2

**Q.** For EFLRHTLC [p4722], which Binding Capacity [2] is on record?
**A.** 3

**Q.** For LQFKHSTC [p4734], which Binding Capacity [2] is on record?
**A.** 2

**Q.** With TGLMFKHC [p4736] as the molecule, how does the Binding Capacity [2] read?
**A.** 2

**Q.** How did the Binding Capacity [2] turn out when ATFRHSPC [p4716] was run?
**A.** 2

**Q.** How did the Binding Capacity [2] turn out when QVMRHHAC [p4711] was run?
**A.** 2

**Q.** Which Binding Capacity (code (weak binding, OD halfmax 1:<4000)) [2] does the source give for HEPLFSHC [p4719] here?
**A.** 1

**Q.** For TPLMFWHC [p4733], which Binding Capacity (code (weak binding, OD halfmax 1:<4000)) [2] is on record?
**A.** 1

**Q.** NELRHSTC [p4701] was tested. Which Binding Capacity [2] did it give?
**A.** 3

**Q.** For SELRHSTC [p4744], which Binding Capacity [2] is on record?
**A.** 3

**Q.** With APMYFPHC [p4717] as the molecule, how does the Binding Capacity [2] read?
**A.** 2

**Q.** SLMRHSSC [p4721] was tested. Which Binding Capacity [2] did it give?
**A.** 2

**Q.** With ELFKHHLC [p4714] as the molecule, how does the Binding Capacity [2] read?
**A.** 3

**Q.** With NELFKHFC [p4727] as the molecule, how does the Binding Capacity [2] read?
**A.** 2

**Q.** For LHIPFRHC [p4726], which Binding Capacity [2] is on record?
**A.** 3

**Q.** How did the Binding Capacity [2] turn out when AYFPHTSC [p4751] was run?
**A.** 2

**Q.** For SNSEFRRC [p4743], which Binding Capacity [2] is on record?
**A.** 3

**Q.** Which Binding Capacity [2] does the source give for ATFRHSTC [p4735] here?
**A.** 2

**Q.** With SNFRHSVC [p4749] as the molecule, how does the Binding Capacity [2] read?
**A.** 3

**Q.** For GEMRHQPC [p4702], which Binding Capacity [2] is on record?
**A.** 3

**Q.** With THMEFRRC [p4745] as the molecule, how does the Binding Capacity [2] read?
**A.** 3

**Q.** Which Binding Capacity (code (weak binding, OD halfmax 1:<4000)) [2] does the source give for QPNLFYHC [p4713] here?
**A.** 1

**Q.** Which Binding Capacity [2] does the source give for MLPFRHGC [p4731] here?
**A.** 2

**Q.** Which Binding Capacity [2] does the source give for YEFRHAQC [p4748] here?
**A.** 3

**Q.** Which Binding Capacity [2] does the source give for APIQFRHC [p4750] here?
**A.** 3

**Q.** Which Binding Capacity [2] does the source give for AANYFPRC [p4706] here?
**A.** 2

**Q.** For SAGSFRHC [p4710], which Binding Capacity [2] is on record?
**A.** 3

**Q.** How did the Binding Capacity [2] turn out when SQSYFKHC [p4755] was run?
**A.** 3

**Q.** Which Binding Capacity [2] does the source give for VELRHSRC [p4704] here?
**A.** 2

**Q.** QELKRYYC [p4724] was tested. Which Binding Capacity (code (weak binding, OD halfmax 1:<4000)) [2] did it give?
**A.** 1

**Q.** With ATPLFRHC [p4723] as the molecule, how does the Binding Capacity [2] read?
**A.** 3

**Q.** With TYFSHSLC [p4718] as the molecule, how does the Binding Capacity [2] read?
**A.** 2

**Q.** DTYFPRSC [p4703] was tested. Which Binding Capacity [2] did it give?
**A.** 2

**Q.** SEFSHSSC [p4712] was tested. Which Binding Capacity [2] did it give?
**A.** 3

**Q.** Which Binding Capacity [2] does the source give for SQYFPRPC [p4729] here?
**A.** 2

**Q.** Which Binding Capacity [2] does the source give for YSMRHDAC [p4705] here?
**A.** 2

**Q.** NSSELRHC [p4752] was tested. Which Binding Capacity [2] did it give?
**A.** 3

**Q.** With AEFMHSVC [p4739] as the molecule, how does the Binding Capacity [2] read?
**A.** 2

**Q.** Which Binding Capacity [2] does the source give for SAMRHSLC [p4732] here?
**A.** 2
